Publication PMC5736309

Target: Y1F Rpb1 (Rpb1 with a CTD of 26 FSPTSPS repeats) (S. cerevisiae)
Experiment: co-IP

B1: 3HA-tagged Nrd1 (natural protein)
chain: MQQDDDFQNFVATLESFKDLKSGISGSRIKKLTTYALDHIDIESKIISLIIDYSRLCPDSHKLGSLYIIDSIGRAYLDETRSNSNSSSNKPGTCAHAINTLGEVIQELLSDAIAKSNQDHKEKIRMLLDIWDRSGLFQKSYLNAIRSKCFAMDISNNTANTASQQLSLDPKQRSKQILSNLKKSPPLNLNISLPTDLTSTDPAKQQAALFQVIAALQKHFKTLPSHTSVGTVAPPQAHTITEYGSRRERERERERYNSRRNRSRSPPAPFSQPSTGRKDRYPSVAQDQYSIGAPNTTFGTNNHHLYPDELNVSNNPHYRPKPVSYDSTLPPDHIKVYSRTLFIGGVPLNMKEWDLANVLKPFAEVQSVILNNSRKHAFVKVYSRHEAENVLQNFNKDGALPLRTRWGVGFGPRDCCDYQHGYSIIPMHRLTDADKKWSVSAQWGGTSGQPLVTGIVFEEPDIIVGEGVSSKAISQKMPTDSGRNGPRSGKPNKSGSISSISPVPYGNAPLASPPPQQYVQPMMQQPYGYAPNQPLPSQGPAAAAPPVPQQQFDPTAQLNSLMNMLNQQQQQQQQS
B1 was tested, and the fold change in binding against WT Rpb1 was 7.3 fold.
